B1: CPEB3 Ribozyme (parent)
chain: GGGGGCCACAGCAGAAGCGUUCACGUCGCGGCCCCUGUCAGAUUCUGGUGAAUCUGCGAAUUCUGCUGU

Variants of: B1
Assay: self-cleavage, relative activity (ratio to wild type); higher = more cleavage; co-transcriptional

Variant	self-cleavage
U44C C45A	0.998
U44C C45U	0.955
U44G A52U	0.975
U44G A52G	0.943
U43A U64C	0.649
U43A U64A	0.591
C45A G58C	1.02
C45A G58A	1
C45A U67G	1.01
C45A U67C	0.98
C45A U67A	0.951
U43G G50U	0.952
U43G G50A	0.938
U43G G65U	0.352
U43G G65C	0.432
U44A A59C	0.638
U44A A59U	0.725
U44A A59G	0.924
U43G C57A	0.293
U43C A59U	0.68
U43C A59C	0.652
U43C A59G	1.02
U43C U67C	0.969
U43C U67G	1.01

Variant	self-cleavage
U43C U67A	0.98
U44C C66A	0.502
U44C C66U	0.928
U44C C66G	0.464
U44C C63G	0.417
U44C C63U	0.819
U43G U69G	0.97
C45A C57G	0.252
U44G G47C	0.962
U44G G47U	1.01
U44G G47A	0.954
U44A G48A	0.953
U43C G68U	1
U43G U64A	0.506
U43G U64C	0.409
C45A A51G	1.02
C45A A51C	0.924
U44A C57A	0.383
U44A C57U	0.397
U44A C57G	0.365
C45G C54U	0.952
C45G C54G	0.688
U44G U61C	0.649
U44G U61G	0.82

Variant	self-cleavage
U43G C54G	0.318
U43G C54A	0.432
U44A U64A	0.843
U44A U64G	0.8
U43C G65C	0.567
U44A G50U	0.984
U44A G50C	1
U44C G65C	0.452
U44G G56U	0.666
U44G G68C	1.01
U44G G68A	0.942
U44G G68U	1.03
U44A U53A	0.922
U44A U53C	0.684
U44A U53G	0.84
U43C C45U	1.01
C45A C66G	0.788
U44G C45A	0.932
U44C G58A	0.981
U44C G58C	0.917
U44C G58U	0.963
U43G U49G	0.922
U43G U49C	0.815
U43G U49A	0.963

Variant	self-cleavage
U43C A60U	0.415
U43C A60C	0.227
U43C A60G	0.798
U44A C54G	0.461
U44A C54A	0.588
U44C A52U	1
U44C A52G	1.01
U44C A52C	0.95
U44A U61C	0.662
U44A U61A	0.843
U44A G47C	0.93
C45A C54U	0.926
C45A C54G	0.562
U43C U64G	0.825
U43C U64C	0.671
U43C U64A	0.713
U44C G50C	0.948
U44C G50U	0.93
C45A G50A	1.02
U43G U62G	0.468
C45A U53A	0.87
U43C C66G	0.806
U43C C66U	0.89
U44G U55C	0.512

Variant	self-cleavage
U43A U61C	0.334
U43A U69G	1.01
U43A U69A	0.974
U44C U69G	1.02
U44C U69C	1.07
U44C U69A	0.927
U44A U62G	0.685
U44A U62C	0.774
U44G G50C	0.949
U44G G50U	0.98
U43A U55A	0.257
U43C G56A	0.861
U43C G56C	0.494
C45A G68C	0.965
C45A G68U	0.998
C45A G68A	1.02
U44G U67C	0.977
U44G U67A	0.883
U44G U67G	1.01
U44A A52U	0.969
U43G U67C	0.915
U43G U67A	0.79
U43G U67G	0.867
U44C U67A	0.954

Variant	self-cleavage
U44C U67G	0.931
U44C G48A	1.02
U44C G48C	1
U44C G48U	1.02
U44G U53C	0.749
U44G U53A	0.755
C45G C57U	0.366
C45G C57G	0.328
C45G C57A	0.318
U44G U64G	0.84
U44G U64C	0.754
U44A A51U	0.998
U43C	0.981
U43G	0.929
C45G A52C	0.981
U44G C63A	0.835
U44G C63U	0.918
U44A G68C	1.01
U44A G68A	0.964
U44A G68U	0.981
U43G U44A	0.971
U43G U44C	0.936
U44A U49G	0.993
U44A U49A	1.02

Variant	self-cleavage
U44C U62G	0.664
U44C U62C	0.572
U43C U55C	0.455
U43C U55A	0.632
U44G C66G	0.707
U44G C66U	0.986
U44G U69A	1.01
U44G U69G	1.04
U44G U69C	1.04
C45G A59G	0.969
C45G A59C	0.638
C45G A59U	0.815
C45A U62G	0.832
C45A U62A	0.846
C45A U62C	0.85
U43G C66A	0.319
U43G C66U	0.794
C45A U61A	0.86
C45A U61G	0.6
U44C U64A	0.662
U44C U64G	0.719
U43C U62C	0.86
U43C U62A	0.769
U43C C54U	0.905

Variant	self-cleavage
U43C C54G	0.585
U43C U53A	0.92
U44A G56C	0.383
U44A G56A	0.849
U44G C54G	0.417
U44G C54U	0.87
U43G U61C	0.332
U43C C63A	0.619
U43C C63G	0.648
U43G G47C	0.936
U44G A60C	0.368
U44G A60U	0.382
U44G A60G	0.819
U44A G65A	0.755
U44A G65U	0.588
U44A G65C	0.422
U44G G65U	0.674
U44G G65C	0.445
U44G G65A	0.812
U44G U62C	0.842
U43C U69A	1.01
C45A G56U	0.695
C45A G56C	0.482
U44G G58U	0.959

Variant	self-cleavage
U44G G58C	0.944
U44G G58A	0.922
U44C U61C	0.317
U44G A59G	0.951
U44G A59U	0.612
U44A C66G	0.658
U44A C66U	0.926
U44C C57G	0.362
U44C C57A	0.301
U44C C57U	0.419
U44G U46A	0.978
U44G U46C	0.928
U44G U46G	0.909
U43C A52C	0.968
U43C A52U	1
U43G G56A	0.481
U43G G56C	0.329
U44A	0.983
U44G	0.985
U44C	0.957
C45A G48U	0.976
C45A G48C	1.01
U44A U46A	0.99
U43C A51C	0.968

Variant	self-cleavage
U44A A60U	0.353
U44A A60C	0.423
C45A C63A	0.817
U43G U46C	0.677
U43G U46G	0.915
C45A U46G	0.917
C45A U46A	1.01
C45A U46C	1
C45A G65C	0.533
C45A G65U	0.729
U43C C57G	0.308
U43C C57A	0.298
U43G G68U	0.901
U43G G68A	0.948
U44G A51G	0.671
U44G A51C	0.966
U44G A51U	0.941
U44C A60G	0.669
U44C A60U	0.441
C45A A52U	0.919
U43C G58A	0.943
U43C G58U	0.975
U44G G48C	0.965
U43C U49C	0.984

Variant	self-cleavage
U43G G58U	0.946
U43G G58C	0.959
C45A U69C	1.07
C45A U69A	1
C45A U69G	1.06
U44A U67C	0.973
U44A U67G	0.984
U44A U67A	0.936
U43G C63G	0.446
C45A U49C	1
U44C A59U	0.657
U44C A59C	0.577
U44C A59G	0.958
U43G U55A	0.486
U43G U55G	0.264
U43G G48C	0.933
U43G G48A	0.964
U43C G48U	0.998
U43C G48C	1
U44A U69C	1.05
U44A U69G	1.02
U44A U69A	0.956
U44A C45G	0.983
U44A C45U	0.965

Variant	self-cleavage
U43C U46G	0.97
U43C U46A	0.985
U43C U46C	0.939
U44A C63A	0.731
C45G A60U	0.407
C45G A60C	0.493
C45G A60G	0.897
U44C U53G	0.747
U44C U53C	0.647
U44C U53A	0.895
U43G C45A	0.886
U43G C45G	0.907
U43G A51U	0.934
U43G A51C	0.941
U43G A51G	0.901
U44A G58C	1.01
U43C U44A	1.02
U43C U44C	0.937
C45A U64C	0.842
C45A U64G	0.809
C45A U64A	0.821
U43G A59U	0.566
U43G A59G	0.836
U43G A59C	0.513

Variant	self-cleavage
U44C C54U	0.816
U44C C54A	0.627
U44C C54G	0.599
U43G A60G	0.556
U43G A60C	0.498
U43G A60U	0.419
U43G A52U	0.992
U43G A52G	0.911
U43G A52C	0.962
U44C U55A	0.524
U44C U55C	0.473
U43C G47A	1.02
U43C G47C	1.01
C45G A51C	1.01
C45G A51U	1.03
C45G A51G	1.02
U44G U49G	0.927
U43A U62A	0.587
U43A U62G	0.641
U44C G47U	1.01
U44C G47A	0.979
U43C G50A	0.956
C45A A59C	0.613
C45A A59U	0.793

Variant	self-cleavage
C45A	0.984
C45G	0.986
U44C G56C	0.351
U44C G56U	0.388
U44A U55C	0.496
U44A U55A	0.566
U44C G68C	0.949
U44C G68A	0.979
U43A U67A	0.919
U43A U67C	0.895
U44C U46A	0.958
U44C U46C	0.972
U43G U53A	0.8
U43G U53G	0.854
U44C U49A	0.931
U44C U49C	0.83
U44C U49G	0.959
U44C A51C	0.99
U44C A51G	0.693
U44C A51U	0.919
C45A U55A	0.534
C45A U55G	0.475

— the RNAGym collection of RNA variant scans (doi:10.7554/elife.80360)
